The assay addresses T1, fibrinogen (Homo sapiens, UniProt P02671+P02675+P02679).
T1 sequence (P02671 20-629 limits assumed): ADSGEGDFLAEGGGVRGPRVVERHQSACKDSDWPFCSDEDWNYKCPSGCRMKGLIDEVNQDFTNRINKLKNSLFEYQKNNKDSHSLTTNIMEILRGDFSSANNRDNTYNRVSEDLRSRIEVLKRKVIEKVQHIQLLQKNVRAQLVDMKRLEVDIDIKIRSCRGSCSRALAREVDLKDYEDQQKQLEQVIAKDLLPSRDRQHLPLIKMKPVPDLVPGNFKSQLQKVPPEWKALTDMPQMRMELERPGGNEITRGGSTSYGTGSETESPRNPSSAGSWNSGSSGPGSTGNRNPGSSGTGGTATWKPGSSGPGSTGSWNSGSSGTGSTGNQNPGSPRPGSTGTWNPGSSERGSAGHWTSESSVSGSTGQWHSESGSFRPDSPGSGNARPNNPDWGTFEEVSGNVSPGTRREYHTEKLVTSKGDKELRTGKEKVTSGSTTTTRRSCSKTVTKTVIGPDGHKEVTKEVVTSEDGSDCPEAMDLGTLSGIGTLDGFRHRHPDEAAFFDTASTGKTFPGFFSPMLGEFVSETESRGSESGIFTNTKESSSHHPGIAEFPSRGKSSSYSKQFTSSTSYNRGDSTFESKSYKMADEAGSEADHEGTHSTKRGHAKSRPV
T1 sequence (P02675 31-491): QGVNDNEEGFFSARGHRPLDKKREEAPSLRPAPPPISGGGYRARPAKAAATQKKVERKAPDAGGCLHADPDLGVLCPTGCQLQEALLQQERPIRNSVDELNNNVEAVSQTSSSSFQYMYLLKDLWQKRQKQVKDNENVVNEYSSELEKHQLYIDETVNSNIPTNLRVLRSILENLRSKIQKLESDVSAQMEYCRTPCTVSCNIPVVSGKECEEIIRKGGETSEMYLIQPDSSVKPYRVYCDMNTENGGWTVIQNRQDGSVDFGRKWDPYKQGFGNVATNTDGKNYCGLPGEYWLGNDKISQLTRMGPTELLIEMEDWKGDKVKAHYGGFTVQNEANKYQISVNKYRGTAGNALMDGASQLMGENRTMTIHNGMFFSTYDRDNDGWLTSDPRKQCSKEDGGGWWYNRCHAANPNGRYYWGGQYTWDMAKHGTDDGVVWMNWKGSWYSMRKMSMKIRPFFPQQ
T1 sequence (P02679 27-453): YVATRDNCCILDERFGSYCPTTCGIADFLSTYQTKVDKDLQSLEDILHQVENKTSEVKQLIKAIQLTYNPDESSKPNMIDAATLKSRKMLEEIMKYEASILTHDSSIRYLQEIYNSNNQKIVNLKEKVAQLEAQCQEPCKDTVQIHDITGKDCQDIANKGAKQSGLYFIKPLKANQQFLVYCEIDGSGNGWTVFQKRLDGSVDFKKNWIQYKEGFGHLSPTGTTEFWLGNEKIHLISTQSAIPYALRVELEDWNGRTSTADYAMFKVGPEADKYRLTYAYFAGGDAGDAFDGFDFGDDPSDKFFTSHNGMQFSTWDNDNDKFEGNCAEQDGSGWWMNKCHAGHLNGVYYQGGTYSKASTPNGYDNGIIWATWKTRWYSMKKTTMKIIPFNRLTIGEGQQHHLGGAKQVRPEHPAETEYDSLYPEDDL
The experiment in a line: Fibrinogen ELISA assay. The assay is classed as binding. The settings on record: sandwich ELISA. Here is the method: Fibrinogen ELISA Assay. To ensure similar immobilization levels of recombinant human ectodomain aIIbβ3 between the ELISA plate and integrin coupled magnetic beads, the wells of a 96-well micro plate (Nunc MaxiSorp) were incubated with the same aIIbβ3 concentration per surface area as during the preparation of the magnetic beads, 6.6×10^4 μg·mL^−1·c^−2. Each well was coated with aIIbβ3 or control proteins (BSA and β3−/− platelet lysate) by incubation of 6 μg/μL protein in binding buffer (TRIS buffered saline with 0.05% TWEEN-20 and 1 mM each of MgCl2, MnCl2 and CaCl2)) at 4° C. overnight. Incubation of 3% skim milk (ED Millipore) and 2% TWEEN-20 for 1 hour at 37° C. was used for blocking. The concentration of aIIbβ3 per surface area of bead used when coating SAM coated beads is 6.6×10^4 μg·mL^−1·cm^−2, therefore the wells of 96 well plates used were coated with the same density EDC/NHS quenching achieved by increase pH to 8.6. Bead concentration for synthesis: 6×10^9 beads·mL^−1; Integrin-bead reaction concentration=250 μg·mL^−1; Integrin Used=6.6×10^4 μg·mL^−1·cm^−2; Well Surface Area (50 μL)=0.93 cm^2; Concentration/wee for ELISA=6×10^4 μg·mL^−1 (6 μL/well in 50 μL total volume); Stock [αIIbβ3]=5×10^5 μg·mL^−1.
Fibrinogen binding. […] The OPD peroxidase reaction was stopped after 1 hour with 2 M H2SO4 and the absorbance was read at 492 nm. […]

Usually Kd stands for a measure of binding affinity in units of concentration.

In turn, “integrin: Recombinant human ectodomain αIIbβ3 immobilized on 96-well ELISA plate at the same density as on the beads” came in with a CLOD (fibrinogen detection) of 0.54 ± 0.07 µM. In addition, under “integrin on plate surface, blocking step, HRP labelled detection antibody”, the Kd came out at 2200 ± 400 nM.

Source of the values: patent US20230331811A1, “IMMOBILIZED SELF-ASSEMBLED PROTEIN MULTIMERS” (CCOA THERAPEUTICS INC., priority 2020, published 2023).
